Measurements reported in paper PMC3973330, “A highly divergent archaeo-eukaryotic primase from the Thermococcus nautilus plasmid, pTN2”.

T1: PolpTN2delta311-923 (Thermococcus nautilus (plasmid pTN2), UniProt D6MY06 1-310)
T1 sequence: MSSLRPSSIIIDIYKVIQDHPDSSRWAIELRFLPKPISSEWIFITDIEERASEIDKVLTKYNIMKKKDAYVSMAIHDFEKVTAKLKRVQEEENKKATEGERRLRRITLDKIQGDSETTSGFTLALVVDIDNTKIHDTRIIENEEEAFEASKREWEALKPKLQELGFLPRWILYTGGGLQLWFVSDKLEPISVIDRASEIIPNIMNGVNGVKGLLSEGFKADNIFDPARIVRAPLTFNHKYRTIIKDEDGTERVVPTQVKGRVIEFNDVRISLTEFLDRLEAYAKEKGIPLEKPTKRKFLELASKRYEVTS


Molecular target: T1, PolpTN2delta311-923
Assay: EMSA; 10 mM Mg2+; EMSA: 50 mM Tris-HCl pH 8, 20 mM KCl, 10 mM MgCl2, 7.5 nM probe, 30 min at 65 C; 10% native PAGE in TBE
Conditions: protein: recombinant; tags: His-tag (pET30, NdeI/XhoI); label: 32P; single strand

Binder	binding result
AGAGGGTTCAAAAAATGGTTTCACCCCAAA (ssDNA) [30 DNA]	binds
AGAGGGUUCAAAAAAUGGUUUCACCCCAAA (ssRNA) [30 RT]	binds
